Test system: H322 cells
Test: Cleaved active caspase-3 immunostaining of resected H322 tumors
Assay type: in vivo, NMRI nude mice
Protocol: FIG. 3. COMMD2 is required for UNC5B-induced cell death and tumor suppression. (A): Silencing COMMD2 inhibits UNC5B-induced DNA fragmentation. Stable Hela cells inducible for UNC5B were transfected with two distinct siRNA scramble (siCTRL) or targeting COMMD2 (siCOMMD2-1 and -2). Upon treatment for 18 hours with the indicated concentrations of doxycycline (Dox), DNA fragmentation was evaluated through FACS analysis (n=3, **** p<0.0001, Ordinary two-way ANOVA). Values are given as means±SEM. (B, C, D): Tumor growth inhibition driven by netrin-1 interference necessitates UNC5B and COMMD2. NMRI nude mice were engrafted with stable H322 cells, knock-down for luciferase (sgLUC, used as a non-targeting control), UNC5B (sgUNC5B) or COMMD2 (sgCOMMD2), generated with CRISPR-Cas-9-KRAB strategy. Tumors obtained from nude mice engrafted with stable H322 cells were lysed and gene expression was evaluated by quantitative RT-PCR (n=2-3, *p<0.05, Kruskal-Wallis test with Dunn's multiple comparisons test) (B). After tumor volume reached 50 mm^3, mice were intravenously treated three time per week with anti-netrin-1 (NP137) or control (Iso-mAb) antibodies and tumor growth was evaluated (n=10 mice/group, ^nsp>0.05, *p<0.05, Mann-Whitney test, two-tailed) (C). A histogram illustrating tumor volumes at 35 days after first treatment is indicated in (D) (n=10 mice/group, ^nsp>0.05, *p<0.05, *** p<0.001, Kruskal-Wallis test with uncorrected Dunn's test). (E). Silencing of UNC5B and COMMD2 restrains in vivo NP137-induced apoptosis. After sacrificing the mice, tumors were resected and apoptosis was quantified by immunostaining of active cleaved caspase-3. […]
5-week-old female athymic NMRI nude mice were obtained from Janvier Labs (Saint Bertevin, France). […] Tumor size was measured three times per week with a caliper. Tumor volume was calculated according to the formula v=0.5× (l×w2), where v is volume, l is length, and w is width. […]

B1: NP137: humanized anti-netrin-1 monoclonal antibody, VH SEQ ID NO: 22, VL SEQ ID NO: 16, human IgG1 (antibody, V domains shown)
VH: QVQLQQSGPGLVKPSQTLSLTCAISGYTFTSYNMHWVRQATGQGLEWMGAIYPGNGDTSYNQKFKGRLTISKDTSKNQVVLTMTNMDPVDTATYYCARGGTGFAYWGQG
VL: DIQMTQSPSSLSASVGDRVTITCKASQSVSNDVAWYQQKPGQAPRLLIYYASNRYTGIPPRFSGSGYGTDFTLTINNIESEDAAYYFCQQDYSSPWTFGQG
modifications: human IgG1 constant region; humanized variant; MISC_FEATURE - CDR according to IGMT
H322 tumors knocked-out for COMMD2
  percentage of caspase-3 positive cells: failed to detect a similar increase
H322 tumors knocked-out for UNC5B
  percentage of caspase-3 positive cells: failed to detect a similar increase
Control H322 tumors (sgLUC)
  apoptosis, cleaved active caspase-3 positive cells: associated with apoptosis induction
